Where a chain is given by its changes, count along the chain named.
B1: Class 1 ligand 43 (ssRNA)
RNA: GGGAGACAAGAAUAAACGCUCAACCAGAUAAUCCCAAUGAGUCCCUCGAGAUUGAACGAUCCUUUCGACAGGAGGCUCACAACAGGC
modifications: 2'-F all pyrimidines
B2: Class 1 ligand 56 (ssRNA)
RNA: GGGAGACAAGAAUAAACGCUCAAUUUGGAAGAUCCCUGGAGUCUCGUUGGUCGUUGAACGAUCCUUCGACAGGAGGCUCACAACAGGC
modifications: 2'-F all pyrimidines
B3: Class 1 ligand 28 (ssRNA)
RNA: GGGAGACAAGAAUAAACGCUCAAACAGCGAUUGAACGAUCCUUUCAGCUGAUGGGUACGGGAUUCGACAGGAGGCUCACAACAGGC
modifications: 2'-F all pyrimidines
B4: Class 1 ligand 11 (ssRNA)
RNA: GGGAGACAAGAAUAAACGCUCAAUUUAGAAGAUCCCGGAGUCUCGUUGGUCGUUGAACGAUCCUUCGACAGGAGGCUCACAACAGGC
modifications: 2'-F all pyrimidines
B5: Class 1 ligand 18 (first SELEX) (ssRNA)
RNA: B4 RNA with A27C, G37U
modifications: 2'-F all pyrimidines
B6: Class 1 ligand 5 (ssRNA)
RNA: B4 RNA with U24A, A27G, A30G, G31U, G37U, C44U, A60G
modifications: 2'-F all pyrimidines
B7: Class 1 ligand 26 (ssRNA)
RNA: B4 RNA with A27G, G37U
modifications: 2'-F all pyrimidines
B8: Class 1 ligand 16 (ssRNA)
RNA: B4 RNA with U26C, A27G, G37A
modifications: 2'-F all pyrimidines
B9: Class 1 ligand 10 (ssRNA)
RNA: B4 RNA with U26C, A27G, C35A
modifications: 2'-F all pyrimidines
B10: Class 1 ligand 40 (ssRNA)
RNA: B4 RNA with U26C, A27U, G37A
modifications: 2'-F all pyrimidines
B11: Class 1 ligand 49 (ssRNA)
RNA: B4 RNA with A27G, G38A, A39G, G40A
modifications: 2'-F all pyrimidines
B12: Class 1 ligand 4 (ssRNA)
RNA: GGGAGACAAGAAUAAACGCUCAAUUUGGAAGAUCCCGGAGUCUCGUUGGUGUUGAACGAUUCUUCGACAGGAGGCUCACAACAGGC
modifications: 2'-F all pyrimidines
B13: Class 1 ligand 30 (ssRNA)
RNA: GGGAGACAAGAAUAAACGCUCAAAAGUCACUCGCAGCGCUUCCUGGUUCGAUUGAACGAUCCUUUCGACAGGAGGCUCACAACAGGC
modifications: 2'-F all pyrimidines
B14: Class 1 ligand 20 (ssRNA)
RNA: GGGAGACAAGAAUAAACGCUCAAGUCAUAAGCCUAACGGUCCCUAGUCAAUUGAACGAUCCUUCGACAGGAGGCUCACAACAGGC
modifications: 2'-F all pyrimidines
B15: Class 1 ligand 37 (ssRNA)
RNA: GGGAGACAAGAAUAAACGCUCAAUUUGGAAGGUCCUGAGUCUCGUUGGUCGUUGAACGAUCCUUCGACAGGAGGCUCACAACAGGC
modifications: 2'-F all pyrimidines
B16: Class 1 ligand 8 (ssRNA)
RNA: GGGAGACAAGAAUAAACGCUCAAGUGCCCUGUUAUCUUCCUCGAUCGAUUGAACGAUCCUUUCGACAGGAGGCUCACAACAGGC
modifications: 2'-F all pyrimidines
B17: 2nd generation ligand 25 (ssRNA)
RNA: GGGAGGACGAUGCGGUUCCUGAUUCAAGUUGAACGAUCCUUCCUGCUGUACGUCCAGACGACUCGCCCGA
modifications: 2'-F all pyrimidines
B18: 2nd generation ligand 61 (ssRNA)
RNA: GGGAGGACGAUGCGGUUUAGUGUUUAGUUGAACGAUCCUUCUAACACCAGUCCCAGACGACUCGCCCGA
modifications: 2'-F all pyrimidines
B19: 2nd generation ligand 72 (ssRNA)
RNA: GGGAGGACGAUGCGGAUUCGAUGUAGUUUGAACGAUCCUUGUAUAUAUCGGAUCAGACGACUCGCCCGA
modifications: 2'-F all pyrimidines
B20: 2nd generation ligand 93 (ssRNA)
RNA: GGGAGGACGAUGCGGUUCUAGGUCGAAAUUGAACGAUCCUUUUUCGCUAUGGAUCAGACGACUCGCCCGA
modifications: 2'-F all pyrimidines
B21: 2nd generation ligand 52 (ssRNA)
RNA: GGGAGGACGAUGCGGGAUUUUCCGUUAAUUGAACGAUCCUUUUCACGGACUGCAGACGACUCGCCCGA
modifications: 2'-F all pyrimidines
B22: 2nd generation ligand 89 (ssRNA)
RNA: GGGAGGACGAUGCGGUGCAUGAUUUAGUUGAACGAUCCUUCCAACUUCCAGCACAGACGACUCGCCCGA
modifications: 2'-F all pyrimidines
B23: 2nd generation ligand 10 (ssRNA)
RNA: GGGAGGACGAUGCGGAACACCAAUCUUUUUGAACGAUCCUUCGUGGGAGUGCAUCAGACGACUCGCCCGA
modifications: 2'-F all pyrimidines
B24: 2nd generation ligand 91 (ssRNA)
RNA: GGGAGGACGAUGCGGUUCAUUUUUGUGUUGAACGAUCCUUCACUAACCUACCACAGACGACUCGCCCGA
modifications: 2'-F all pyrimidines
B25: 2nd generation ligand 42 (ssRNA)
RNA: GGGAGGACGAUGCGGGUUCGAAACUUCCUUGAACGAUCCUUGGAUGUUUUGCUCAGACGACUCGCCCGA
modifications: 2'-F all pyrimidines
B26: 2nd generation ligand 5 (ssRNA)
RNA: GGGAGGACGAUGCGGGUUUAAUCUCGGAUUGAACGAUCCUUUCUGUAAUUAGUCCAGACGACUCGCCCGA
modifications: 2'-F all pyrimidines
B27: 2nd generation ligand 71 (ssRNA)
RNA: GGGAGGACGAUGCGGAUUCGAUUAGAGAUUGAACGAUCCUUUCAUCAGUUGGAUCAGACGACUCGCCCGA
modifications: 2'-F all pyrimidines
B28: 2nd generation ligand 98 (ssRNA)
RNA: GGGAGGACGAUGCGGGUUCCAGUAUUAGUUGAACGAUCCUUCUUAUCUGGAGUCCAGACGACUCGCCCGA
modifications: 2'-F all pyrimidines
B29: 2nd generation ligand 49 (ssRNA)
RNA: GGGAGGACGAUGCGGUUCGUCAUCGCUAUUGAACGAUCCUUUAGCUGAUGGACCAGACGACUCGCCCGA
modifications: 2'-F all pyrimidines
B30: 2nd generation ligand 14 (ssRNA)
RNA: GGGAGGACGAUGCGGUUCGACACGAAAGUUGAACGAUCCUUCUAUCUGUUGGACCAGACGACUCGCCCGA
modifications: 2'-F all pyrimidines
B31: 2nd generation ligand (SEQ 118) (ssRNA)
RNA: GGGAGGACGAUGCGGGUUCGACAUAAUCUUGAACGAUCCUUGAUUACUUGGUCCCAGACGACUCGCCCGA
modifications: 2'-F all pyrimidines
B32: 2nd generation ligand 23 (ssRNA)
RNA: GGGAGGACGAUGCGGGUUUAAUACAAAGUUGAACGAUCCUUCUUUGCAUUGGACCAGACGACUCGCCCGA
modifications: 2'-F all pyrimidines
B33: 2nd generation ligand 20 (ssRNA)
RNA: GGGAGGACGAUGCGGUGUUCAUGCUUGAUUGAACGAUCCUUUCAUAGUGUUGGUCAGACGACUCGCCCGA
modifications: 2'-F all pyrimidines
B34: 2nd generation ligand 19 (ssRNA)
RNA: GGGAGGACGAUGCGGUUUGACGUAUAAUUGAACGAUCCUUUUCUAGCUUAGACCAGACGACUCGCCCGA
modifications: 2'-F all pyrimidines
B35: 2nd generation ligand 11 (ssRNA)
RNA: GGGAGGACGAUGCGGGAUUCUCUUUGAGUUGAACGAUCCUUCUCAUCGCACUUGCCAGACGACUCGCCCGA
modifications: 2'-F all pyrimidines
B36: 2nd generation ligand 83 (ssRNA)
RNA: GGGAGGACGAUGCGGUUUGAUGAGGUAGUUGAACGAUCCUUCCAUCCGUUAGACCAGACGACUCGCCCGA
modifications: 2'-F all pyrimidines
B37: 2nd generation ligand 86 (ssRNA)
RNA: GGGAGGACGAUGCGGUUCAACAACGUACUUGAACGAUCCUUGUGCUCGUUGAUCCAGACGACUCGCCCGA
modifications: 2'-F all pyrimidines
B38: 2nd generation ligand 69 (ssRNA)
RNA: GGGAGGACGAUGCGGGUUUCACUUCAAGUUGAACGAUCCUUCUUGGCUUGAGCACAGACGACUCGCCCGA
modifications: 2'-F all pyrimidines
B39: 2nd generation ligand 33 (ssRNA)
RNA: GGGAGGACGAUGCGGUUCGAUGGCCAUUUGAACGAUCCUUAUUAUCAACGGUCCAGACGACUCGCCCGA
modifications: 2'-F all pyrimidines
B40: 2nd generation ligand 88 (ssRNA)
RNA: GGGAGGACGAUGCGGUUCGUUACGAUAAUUGAACGAUCCUUUUAUCUUUCAGUCCAGACGACUCGCCCGA
modifications: 2'-F all pyrimidines
B41: 2nd generation ligand 74 (ssRNA)
RNA: GGGAGGACGAUGCGGUAAGUUCUAACUUUUGAACGAUCCUUGGCACCCUGACUACAGACGACUCGCCCGA
modifications: 2'-F all pyrimidines
B42: 2nd generation ligand 9 (ssRNA)
RNA: GGGAGGACGAUGCGGUUCUACACGAUAUUUGAACGAUCCUUGUAUCUUAGGUCCCAGACGACUCGCCCGA
modifications: 2'-F all pyrimidines
B43: 2nd generation ligand 58 (ssRNA)
RNA: GGGAGGACGAUGCGGUCUUAAGUUUGAAUUGAACGAUCCUUUUCUUCCAGGCAACAGACGACUCGCCCGA
modifications: 2'-F all pyrimidines
B44: 2nd generation ligand 73 (ssRNA)
RNA: GGGAGGACGAUGCGGGGUUUUCUAAGUGUUGAACGAUCCUUCACAUAGCGUGUCCCAGACGACUCGCCCGA
modifications: 2'-F all pyrimidines

Target: T1, human chorionic gonadotropin (hCG) heterodimer (Homo sapiens, UniProt P01215;P0DN86 P01215:25-116,P0DN86:21-165)
T1 sequence (P01215 25-116, chain 1 of 2, other chains not shown): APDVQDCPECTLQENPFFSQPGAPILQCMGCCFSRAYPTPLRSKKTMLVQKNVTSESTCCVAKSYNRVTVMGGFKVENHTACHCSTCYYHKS
Assay: filter
Conditions: tags: Calbiochem or Vitro Diagnostics (14,000 IU/mg); chain copies: alpha/beta heterodimer (stated); label: 32P

Binder	binding signal [% bound at 100 nM]
B1	0.93
B2	3.85
B3	0.58
B4	3.09
B5	2.69
B6	1.26
B7	3.34
B8	5.41
B9	3.59
B10	2.2
B11	3.77
B12	4.81
B13	0.58
B14	0.13
B15	1.89
B16	0.98

Target: T1, human chorionic gonadotropin (hCG) …
Assay: filter
Conditions: tags: Calbiochem or Vitro Diagnostics (14,000 IU/mg); chain copies: alpha/beta heterodimer (stated); label: 32P
Remark: another data set of the same source

Binder	binding signal [% bound at 100 nM]
B17	0.28
B18	15.5
B19	0.3
B20	7.25
B21	6.01
B22	0.21
B23	0
B24	2.36
B25	0.54
B26	3.14
B27	6.99
B28	11.7
B29	14.4
B30	15.4
B31	13
B32	13
B33	8.37
B34	8.52
B35	10
B36	4.48
B37	0.57
B38	18.8
B39	0.59
B40	0.32
B41	11.5
B42	9.98
B43	0
B44	0.84

— patent US5849890, “High affinity oligonucleotide ligands to chorionic gonadotropin hormone and related glycoprotein hormones” (NeXstar Pharmaceuticals, Inc.)
